Test results as given in patent publication US6429304B1, “Nucleic acids encoding a katanin p60 subunit” (The Regents of the University of California, priority 1998, dated 2002).

Tested on: MSU1.1 human fibroblasts
Test: Centrosome targeting of GFP fusion after transient transfection
Assay type: cell-based
Conditions: 2-4 hr after transfection
Method: To allow transient expression of a human p80 WD40-GFP fusion protein in HeLa cells, a DNA fragment containing amino acids 1-263 of human p80 katanin was generated by PCR amplification, placing a BamHI site and a Kozak consensus at the predicted translation start and an EcoRI site after the codon for a.a. 263. This BamHI-EcoRI fragment was ligated into the GFP fusion vector pEGFP-N1 (Clontech).
Both MSU1.1 and HeLa cells were grown on 18 mm glass coverslips in Optimem medium (Life Technologies) supplemented with 10% fetal bovine serum, penicillin and streptomycin. Plasmids were transfected using Superfect Reagent (Qiagen) for 2 hr after which coverslips were washed with PBS and placed in fresh culture medium at 37° C. with 5% CO2 for 1-24 hr.
For imaging of GFP-fluorescence and immunofluorescence with the human p80 katanin antibody or with the γ-tubulin antibody, monoclonal GTU88 (Sigma Chemical), cells on coverslips were fixed either in −20° C. methanol or in 0.5×PBS, 3.7% formaldehyde, 75% methanol at 22° C. for 10 min followed by rehydration in TBST. Antibody labelling was carried out in TBST containing 4% BSA. Images were captured with a Nikon Microphot SA microscope, 100×Plan Fluor 1.3 objective, Photometrics Quantix camera and IP Lab Spectrum software (Scanalytics).

B1: p80 WD40-GFP: fusion of the six WD40 repeats of human p80 katanin (a.a. 1-263) to the N-terminus of green fluorescent protein (protein)
chain: MATPVVTKTAWKLQEIVAHASNVSSLVLGKASGRLLATGGDDCRVNLWSINKPNCIMSLTGHTSPVESVRLNTPEELIVAGSQSGSIRVWDLEAAKILRTLMGHKANICSLDFHPYGEFVASGSQDTNIKLWDIRRKGCVFRYRGHSQAVRCLRFSPDGKWLASAADDHTVKLWDLTAGKMMSEFPGHTGPVNVVEFHPNEYLLASGSSDRTIRFWDLEKFQVVSCIEGEPGPVRSVLFNPDGCCLYSGCQDSLRVYGWEPER
modifications: left off: large carriers
notes: fusion of the six WD40 repeats of human p80 katanin (a.a. 1-263) to the N-terminus of green fluorescent protein
- localization of GFP fluorescence: co-localized with γ-tubulin staining
